Laboratory results taken from paper PMC6606808.

Target: Acinetobacter baumannii AdeB multidrug efflux pump (Acinetobacter baumannii AB0057)
Test: cryo-EM structure; single-particle cryo-EM of purified AdeB reconstituted in lipidic nanodiscs (MSP 1E3D1, E. coli total extract lipid); 20 mM Tris-HCl pH 7.5, 100 mM NaCl; no substrate; C3 symmetry; 2.98 Å

In the case of “Acinetobacter baumannii AdeB multidrug efflux pump (natural protein)”, the stoichiometry N is reported as 3.
